Drawing on PMC4980424, “Glucansucrase Gtf180-ΔN of Lactobacillus reuteri 180: enzyme and reaction engineering for improved glycosylation of non-carbohydrate molecules” (Applied Microbiology and Biotechnology, 2016), this text covers Km, kcat and kcat/Km for four proteins.

Residue numbers refer to the chain shown, from its start. Names may count otherwise.

Substrate in data set [1]: OC[C@H]1O[C@H](Oc2ccccc2O)[C@H](O)[C@@H](O)[C@@H]1O
In words: initial rates by TLC densitometry; Michaelis-Menten fit. Format: biochemical, Limosilactobacillus reuteri. Conditions: acceptor substrate, 1000 mM sucrose as donor, pH 4.7, 37 °C. From the text: initial rates by TLC densitometry; Michaelis-Menten fit on Gtf180-ΔN

Substrate in data set [2]: Oc1ccccc1O
In words: initial rates of catechol-G1 formation by TLC densitometry; Michaelis-Menten fit. Type of data set: biochemical, Limosilactobacillus reuteri. Conditions: acceptor substrate, 1000 mM sucrose as donor, pH 4.7, 37 °C. An excerpt:
initial rates of catechol-G1 formation by TLC densitometry; Michaelis-Menten fit on Gtf180-ΔN

B1: Gtf180-ΔN (Limosilactobacillus reuteri) (protein)
chain: INGQQYYIDPTTGQPRKNFLLQNGNDWIYFDKDTGAGTNALKLQFDKGTISADEQYRRGNEAYSYDDKSIENVNGYLTADTWYRPKQILKDGTTWTDSKETDMRPILMVWWPNTVTQAYYLNYMKQYGNLLPASLPSFSTDADSAELNHYSELVQQNIEKRISETGSTDWLRTLMHEFVTKNSMWNKDSENVDYGGLQLQGGFLKYVNSDLTKYANSDWRLMNRTATNIDGKNYGGAEFLLANDIDNSNPVVQAEELNWLYYLMNFGTITGNNPEANFDGIRVDAVDNVDVDLLSIARDYFNAAYNMEQSDASANKHINILEDWGWDDPAYVNKIGNPQLTMDDRLRNAIMDTLSGAPDKNQALNKLITQSLVNRANDNTENAVIPSYNFVRAHDSNAQDQIRQAIQAATGKPYGEFNLDDEKKGMEAYINDQNSTNKKWNLYNMPSAYTILLTNKDSVPRVYYGDLYQDGGQYMEHKTRYFDTITNLLKTRVKYVAGGQTMSVDKNGILTNVRFGKGAMNATDTGTDETRTEGIGVVISNNTNLKLNDGESVVLHMGAAHKNQKYRAVILTTEDGVKNYTNDTDAPVAYTDANGDLHFTNTNLDGQQYTAVRGYANPDVTGYLAVWVPAGAADDQDARTAPSDEAHTTKTAYRSNAALDSNVIYEGFSNFIYWPTTESERTNVRIAQNADLFKSWGITTFELAPQYNSSKDGTFLDSIIDNGYAFTDRYDLGMSTPNKYGSDEDLRNALQALHKAGLQAIADWVPDQIYNLPGKEAVTVTRSDDHGTTWEVSPIKNVVYITNTIGGGEYQKKYGGEFLDTLQKEYPQLFSQVYPVTQTTIDPSVKIKEWSAKYFNGTNILHRGAGYVLRSNDGKYYNLGTSTQQFLPSQLSVQDNEGYGFVKEGNNYHYYDENKQMVKDAFIQDSVGNWYYFDKNGNMVANQSPVEISSNGASGTYLFLNNGTSFRSGLVKTDAGTYYYDGDGRMVRNQTVSDGAMTYVLDENGKLVSESFDSSATEAHPLKPGDLNGQK
notes: N-terminally truncated Gtf180 (ΔN)
Regarding B1, in data set [1], the Km is on record as 88.8 ± 17.1 mM, the kcat amounted to 863 ± 39.3 s⁻¹ and the kcat/Km is 10200 M⁻¹ s⁻¹.

B2: Gtf180-ΔN (Limosilactobacillus reuteri; L938F) (protein)
chain: B1 chain with L197F
notes: as for B1
B2: in data set [2], the Km was 85.5 ± 4.0 mM, the kcat came out at 1870 ± 74.7 s⁻¹ and the kcat/Km amounted to 21900 M⁻¹ s⁻¹. Further, in data set [1], the Km worked out at 91.1 ± 7.3 mM, the kcat was found to be 576 ± 44 s⁻¹ and the kcat/Km stood at 6300 M⁻¹ s⁻¹.

B3: Gtf180-ΔN (Limosilactobacillus reuteri; L981A) (protein)
chain: B1 chain with L240A
notes: as for B1
For B3, in data set [2], the Km is listed as 11.0 ± 1.3 mM, the kcat was determined as 203 ± 8.1 s⁻¹ and the kcat/Km amounted to 18700 M⁻¹ s⁻¹.

B4: Gtf180-ΔN (Limosilactobacillus reuteri; N1029M) (protein)
chain: B1 chain with N288M
notes: as for B1
As for B4, in data set [2], the Km stood at 58.9 ± 6.4 mM, the kcat is 449 ± 4.9 s⁻¹ and the kcat/Km stood at 7700 M⁻¹ s⁻¹.

One may read the Km as the concentration of substrate that gives half-maximal velocity. As a reminder, the kcat is the number of substrate molecules converted per active site and unit of time at saturation. For orientation: kcat/Km means the turnover number divided by the Michaelis constant.
